# Source: patent publication US20220153851A1 (Five Prime, published 2022)
# Numbering of substitutions follows the chain as printed.
# B1: h0311-L0H2 (antibody, human IgG4 S228P, kappa, V domains shown)
# VH: QVQLVQSGAEVKKPGSSVKVSCKASGYIFTDYNMHWVRQAPGQGLEWMGEINPNNGVVVYNQKFKGTTTLTVDKSTSTAYMELSSLRSEDTAVYYCTRALYHSNFGWYFDSWGQGTLVTVSS
# VL: EIVLTQSPATLSLSPGERATLSCKASQSVDYDGDSHMNWYQQKPGQAPRLLIYTASNLESGIPARFSGSGSGTDFTLTISSLEPEDFAVYYCQQGNEDPWTFGQGTKVEIKR
# notes: also called Ab15; huAb 0311-L0H2
# B2: h0302-L1H1 (antibody, human IgG4 S228P, kappa, V domains shown)
# VH: QVQLVQSGAEVKKPGSSVKVSCKASGYTFSDFNIHWVRQAPGQGLEWMGYINPYTDVTVYNEKFKGRVTITSDKSTSTAYMELSSLRSEDTAVYYCASYFDGTFDYALDYWGQGTLVTVSS
# VL: B1 VL with K24R, Q27E, Y31N, D32Y, D34L, H36F, G72R, G95S, N96K, D98L
# notes: also called Ab8; huAb 0302-L1H1
# B3: h0302-L1H2 (antibody, human IgG4 S228P, kappa, V domains shown)
# VH: B2 VH with M48I, V68A, I70L
# VL: B1 VL with K24R, Q27E, Y31N, D32Y, D34L, H36F, G72R, G95S, N96K, D98L
# notes: also called Ab11; huAb 0302-L1H2
# B4: h0311-L1H1 (antibody, human IgG4 S228P, kappa, V domains shown)
# VH: B1 VH with T67R, T68V, L70I
# VL: B1 VL with E1D, T73A
# notes: also called Ab14; huAb 0311-L1H1
# B5: h0302-L2H2 (antibody, human IgG4 S228P, kappa, V domains shown)
# VH: B2 VH with M48I, V68A, I70L
# VL: EIVVTQSPATLSLSPGERATLSCRASESVDNYGLSFMNWFQQKPGQAPRLLIYTASNLESGIPARFSGSGSRTDFTLTISSLEPEDFAVYYCQQSKELPWTFGQGTKVEIKR
# notes: also called Ab12; huAb 0302-L2H2
# B6: h0301-L0H0 (antibody, human IgG4 S228P, kappa)
# heavy: not shown
# light: EIVLTQSPATLSLSPGERATLSCKASQSVDYDGDNYMNWYQQKPGQAPRLLIYAASNLESGIPARFSGSGSGTDFTLTISSLEPEDFAVYYCHLSNEDLSTFGGGTKVEIKRTVAAPSVFIFPPSDEQLKSGTASVVCLLNNFYPREAKVQWKVDNALQSGNSQESVTEQDSKDSTYSLSSTLTLSKADYEKHKVYACEVTHQGLSSPVTKSFNRGEC
# notes: also called Ab1; huAb 0301-L0H0
# B7: h0301-L1H0 (antibody, human IgG4 S228P, kappa)
# heavy: not shown
# light: B6 light with E1N
# notes: also called Ab4; huAb 0301-L1H0
# B8: cAb 0302 (antibody, human IgG4 S228P, kappa)
# heavy: not shown
# light: DVVVTQTPASLAVSLGQRATISCRASESVDNYGLSFMNWFQQKPGQPPKLLIYTASNLESGIPARFSGGGSRTDFTLTIDPVEADDAATYFCQQSKELPWTFGGGTRLEIKRTVAAPSVFIFPPSDEQLKSGTASVVCLLNNFYPREAKVQWKVDNALQSGNSQESVTEQDSKDSTYSLSSTLTLSKADYEKHKVYACEVTHQGLSSPVTKSFNRGEC
# Biological target: T1, human CSF1R on CSF1R (SEQ ID NO: 2)-transfected CHO cells (human, UniProt P07333 20-972)
# Test: cell-based or functional assay
Binder,"IC50, inhibition of CSF1-induced CSF1R phosphorylation (head prints 'Human CSF1/Human CSF1R ECD IC50') [µg/mL]","IC50, inhibition of IL34-induced CSF1R phosphorylation (head prints 'Human IL34/Human CSF1R ECD IC50') [µg/mL]"
B1,0.435,0.633
B2,0.742,0.364
B3,0.598,0.495
B4,0.508,0.667
B5,0.354,0.24
B6,1.03,0.433
B7,6.15,0.378
B8,0.264,0.351

# Biological target: T1, human CSF1R on CSF1R (SEQ ID NO: …)
# Test: cell-based or functional assay
# Remark: another data set of the same source
Binder,CSF1 blocking IC50 (ligand-induced CSF1R phosphorylation in CHO cells) [µg/mL],IL34 blocking IC50 (ligand-induced CSF1R phosphorylation in CHO cells) [µg/mL]
B6,0.305,0.341
B7,0.213,0.242

# Biological target: T1, human CSF1R on CSF1R (SEQ ID NO: …)
# Test: cell-based or functional assay
# Remark: another data set of the same source
row,Binder,"IC50 (read off the curve), CSF1-induced CSF1R phosphorylation [µg/mL]"
1,B3,~0.6
2,B8,~0.3

# Biological target: T2, cynoCSF1R ECD-Fc (cynomolgus)
# T2 construct: also called cynomolgus CSF1R ECD
# Test: ELISA, plate coated with cynoCSF1R ECD-Fc
# Experimental: (§1) Ninety-six well clear-bottom ELISA plates were coated overnight with 1 μg/ml recombinant hCSF1R ECD.506-Fc (SEQ ID NO: 6; FivePrime Therapeutics) or Human M-CSF R Fc Chimera (R&D Systems) in PBS. The next morning, wells were washed four times with 0.05% Tween20 in PBS (PBST) and blocked with Blocker-Blotto (Pierce). Fifty μl of 0.5× serial dilutions of the humanized antibody or parental chimeric antibody, beginning with 2000 ng/ml, diluted 1:1 in Blocker-Blotto were added to the CSF1R-coated wells. After incubation at room temperature (RT) for 90 min, wells were washed four times with PBST, and a 1:5000 dilution of a peroxidase-conjugated Goat anti-Human kappa Light chain antibody (Sigma) in Blocker-Blotto was added to each well. After incubation at RT for 60 min, wells were washed four times with PBST, and 50 μl o-phenylenediamine dihydrochloride peroxidase substrate (Sigma) was added to each well. After incubation at RT for 30 min, A450 values of each well were read directly on a SpectraMaxPlus spectrophotometer with SoftMaxPro software (Molecular Devices).
# The binding curve for each humanized antibody binding to cynomolgus CSF1R ECD was determined as described above for human CSF1R, except the wells of the clear-bottom ELISA plates were coated overnight with 2 μg/ml recombinant cynoCSF1R ECD-Fc (FivePrime Therapeutics, SEQ ID NO: 8, but without the 19 amino acid leader sequence).
row,Binder,EC50 [µg/mL]
1,B1,0.0175
2,B2,1.06
3,B3,0.172
4,B4,0.0309
5,B5,0.018
6,B6,0.0151
7,B7,0.0119
8,B8,0.0173

# Biological target: T3, hCSF1R ECD.506-Fc (human)
# T3 construct: also called human CSF1R ECD-Fc fusion protein; human CSF1R ECD
# Test: ELISA, plate coated with human CSF1R ECD-Fc
# Experimental: as §1
row,Binder,EC50 [µg/mL]
1,B1,0.0115
2,B2,0.0214
3,B3,0.0221
4,B4,0.0143
5,B5,0.0101
6,B6,0.0134
7,B7,0.0134
8,B8,0.0159

# Biological target: T2, cynoCSF1R ECD-Fc
# Test: competition ELISA, blocking of human CSF1 binding to cynoCSF1R ECD-Fc
# Experimental: The humanized antibodies, along with the parental chimeric antibodies (cAbs), were tested for their ability to block human CSF1 binding to human and cynomolgus CSF1R ECD, as follows.
# Recombinant Human CSF1 (M-CSF; R&D Systems) was biotinylated using an NH₂-Biotin Labeling Kit (Dojindo Molecular Technologies). One hundred μl of 1 μg/ml biotinylated CSF1 in PBST/0.1% BSA was added to the wells of Reacti-Bind Streptavidin coated plates (Pierce) pre-blocked with SuperBlock blocking buffer (Pierce) according to the manufacturer's instructions. Fifty μl of 0.5× serial dilutions of the humanized antibody or parental chimeric antibody, beginning with 2000 ng/ml, was incubated with 50 ng/ml hCSF1R ECD.506-Fc (SEQ ID NO: 6; FivePrime Therapeutics) or 50 ng/ml cynoCSF1R ECD-Fc (FivePrime Therapeutics, SEQ ID NO: 8, but without the 19 amino acid leader sequence) in 100 μl PBST/0.1% BSA for 90 min at RT, after which the admix was transferred to one or more wells of a ligand-coated plate. After 90 min at RT, wells were washed with PBST, and a 1:5000 dilution of an Fc-fragment-specific peroxidase-conjugated goat anti-human IgG (Jackson Immuno Research) in PBST/0.1% BSA was added to each well. After incubation at RT for 60 min, wells were washed with PBST/0.1% BSA, and o-phenylenediamine dihydrochloride peroxidase substrate (Sigma) was added to each well. After incubation at RT for 30 min, A450 values of each well were read directly on a SpectraMaxPlus spectrophotometer with SoftMaxPro software (Molecular Devices).
row,Binder,IC50 [µg/mL]
1,B1,0.026
2,B2,0.0605
3,B3,1.08
4,B4,0.0247
5,B5,0.838
6,B6,0.0276
7,B7,0.0255
8,B8,0.0331

# Biological target: T2, cynoCSF1R ECD-Fc
# Test: competition ELISA, blocking of human IL34 binding to cynoCSF1R ECD-Fc
row,Binder,IC50 [µg/mL]
1,B1,0.0408
2,B2,0.676
3,B3,0.541
4,B4,0.0537
5,B5,0.279
6,B6,0.0359
7,B7,0.0348
8,B8,0.0494

# Biological target: T4, mCSF1R ECD-Fc (mouse)
# T4 construct: also called mouse CSF1R ECD
# Test: ELISA, plate coated with mCSF1R ECD-Fc, detection anti-human kappa-HRP, A450
# Experimental: as §1
# The binding curve for each humanized antibody binding to mouse CSF1R ECD was determined as described above for human CSF1R, except the wells of the clear-bottom ELISA plates were coated overnight with 2 μg/ml recombinant mCSF1R ECD-Fc (FivePrime Therapeutics, SEQ ID NO: 93).
row,Binder,binding result
1,B1,no binding (tested: 2000 ng/ml)
2,B2,no binding (tested: 2000 ng/ml)
3,B3,no binding (tested: 2000 ng/ml)
4,B4,no binding (tested: 2000 ng/ml)
5,B5,no binding (tested: 2000 ng/ml)
6,B6,no binding (tested: 2000 ng/ml)
7,B7,no binding (tested: 2000 ng/ml)
8,B8,no binding (tested: 2000 ng/ml)

# Biological target: T5, hCSF1R ECD.506 (human, UniProt P07333 20-506)
# T5 construct: also called human CSF1R ECD
# Test: SPR Biacore T100, antibody captured on anti-human IgG, hCSF1R ECD.506 as analyte, 1:1 model
# Experimental: The kₐ, kd, and KD for binding to human CSF1R ECD was determined for each of the humanized antibodies as follows.
# Binding kinetics of anti-CSF1R humanized antibodies to CSF1R ECD was determined using Biacore T100 Surface Plasmon Resonance (SPR) (GE Healthcare Life Sciences, Piscataway, N.Y.). Each of the humanized anti-CSF1R antibodies was captured on a CM5 sensor chip immobilized with anti-Human IgG antibody using the Human antibody capture kit (GE Healthcare Life Sciences, Piscataway, N.Y.) at 150 RU so that the Rmax value for hCSF1R ECD.506 (SEQ ID NO: 5) binding was 100 RU. Rmax values of less than 150 RU are recommended for accurately determining kinetic values. […] The association constant, dissociation constant, affinity, and binding capacity of each of the Fabs for human CSF1R ECD was calculated using the Biacore T100 Evaluation software package using the 1:1 binding model.
Binder,Kd [nM],koff [s⁻¹],kon [M⁻¹ s⁻¹]
B1,0.35,0.000473,1.34e+06
B2,1.17,0.00404,3.47e+06
B3,0.56,0.00153,2.71e+06
B4,0.5,0.000664,1.32e+06
B5,0.46,0.00084,1.84e+06
B6,0.35,0.00111,3.22e+06
B7,0.35,0.00115,3.29e+06
